{
  "source": "patent US20260015403A1",
  "about": "(LENTIGEN TECHNOLOGY, published 2026)",
  "data": [
    {"biological_target": "T1, BCMA on BCMA-positive multiple myeloma tumor lines RPMI-8226 and MM1.S (human, UniProt Q02223 1-184)", "T1 sequence (looked up)": "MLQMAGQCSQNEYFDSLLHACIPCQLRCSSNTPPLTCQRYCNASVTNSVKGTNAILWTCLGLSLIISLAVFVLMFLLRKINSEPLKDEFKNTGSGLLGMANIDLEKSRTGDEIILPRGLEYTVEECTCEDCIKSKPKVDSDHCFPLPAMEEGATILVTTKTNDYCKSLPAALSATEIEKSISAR", "assay": "cell-based or functional assay", "units": {"tumor lysis of RPMI-8226-luc, luciferase-based killing assay, E:T 5": "%"}, "values": [
      {"binder": "CAR D0100 (Ef1a-BCMA sequence 4-45 CD8 BBz) (other) EVQLVQSGAEVKKPGASVKVSCKASGYTSTSYYMHWVRQAPGQGLEWMGIINPSGGSTSYAQKFQGRVTMTRDTSTSTVYMELSSLRSEDTAVYYCARDLGDGAFDIWGQGTMVTVSSGGGGSGGGGSGGGGSDIQMTQSLSSLSASVGDRVTIACRASQTISRYLNWYQQKPGKAPKLLIYAASSLQSGVSSRFSGSGSGTEFTLTISSLQPEDFATYFCQQTYSPPITFGQGTRLEIKRAAATTTPAPRPPTPAPTIASQPLSLRPEACRPAAGGAVHTRGLDFACDIYIWAPLAGTCGVLLLSLVITLYCKRGRKKLLYIFKQPFMRPVQTTQEEDGCSCRFPEEEEGGCELRVKFSRSADAPAYQQGQNQLYNELNLGRREEYDVLDKRRGRDPEMGGKPRRKNPQEGLYNELQKDKMAEAYSEIGMKGERRRGKGHDGLYQGLSTATKDTYDALHMQALPPR", "tumor lysis of RPMI-8226-luc, luciferase-based killing assay, E:T 5": "> 40"},
      {"binder": "CAR D0087 (Ef1a-BCMA sequence 40 CD8 BBz) (other) EVQLVQSGGGVVQPGGSLRLSCAASGFTFSSYGMHWVRQAPGKGLEWVAFIRYDGSNKYYADSVKGRFTISRDNSKNTLYLQMNSLRAEDTAVYYCAKEPPEYYYDSSGYSWGQGTLVTVSSGGGGSGGGGSGGGGSDIQLTQSPSSLSASVGDRVTITCQASQDIDTYLNWYQQKPGKAPKLLIYAASSLQSGVSSRFSGSGSGTEFTLTISSLQPEDFATYFCQQTYSPPITFGQGTRLEIKRAAATTTPAPRPPTPAPTIASQPLSLRPEACRPAAGGAVHTRGLDFACDIYIWAPLAGTCGVLLLSLVITLYCKRGRKKLLYIFKQPFMRPVQTTQEEDGCSCRFPEEEEGGCELRVKFSRSADAPAYQQGQNQLYNELNLGRREEYDVLDKRRGRDPEMGGKPRRKNPQEGLYNELQKDKMAEAYSEIGMKGERRRGKGHDGLYQGLSTATKDTYDALHMQALPPR", "tumor lysis of RPMI-8226-luc, luciferase-based killing assay, E:T 5": "> 40"},
      {"binder": "CAR D0099 (Ef1a-BCMA sequence 4-12 CD8 BBz) (other) QVQLVQSGGGVVQPGGSLRLSCAASGFTFSSYVIHWVRQAPGKGLEWVAAISHDGSNKYYADSVKGRFTISRDNSKNTLYLQMSSLSAEDTAMYYCVKTSSDYYYAYWGQGTLVTVSSGGGGSGGGGSGGGGSQTVVTQEPSFSVSPGGTVTLTCGLSSGSVSTGNSPTWYQQTPGQAPRTLIYSTNTRSSGVPDRFSGSILGNKAALTITGAQADDESDYYCVLYMGSGYWVFGGGTKVTVLGAAATTTPAPRPPTPAPTIASQPLSLRPEACRPAAGGAVHTRGLDFACDIYIWAPLAGTCGVLLLSLVITLYCKRGRKKLLYIFKQPFMRPVQTTQEEDGCSCRFPEEEEGGCELRVKFSRSADAPAYQQGQNQLYNELNLGRREEYDVLDKRRGRDPEMGGKPRRKNPQEGLYNELQKDKMAEAYSEIGMKGERRRGKGHDGLYQGLSTATKDTYDALHMQALPPR", "tumor lysis of RPMI-8226-luc, luciferase-based killing assay, E:T 5": "> 40"},
      {"binder": "BCMA CAR construct with ScFv sequence 39 (MTB-39) (other, not shown: large carriers) EVQLVESGGGVVQPGGSLRLSCAASGFTFSGYGMHWVRQAPGKGLEWVAFIRYDGSNKYYADSVKGRFTISRDNSKNTLYLQMNSLRAEDTAVYYCARDGARNDYWGQGTLVTVSSGGGGSGGGGSGGGGSNFMLTQPHSVSESPGKTVTISCTRSSGSIASNYVQWYQQRPGSAPTTVIYEDNQRPSGVPDRFSGSIDSSSNSASLTISGLKTEDEADYYCQTYDDNNHVIFGGGTQLTVLG", "tumor lysis of RPMI-8226-luc, luciferase-based killing assay, E:T 5": "> 40"},
      {"binder": "CAR D0086 (Ef1a-BCMA sequence 37 CD8 BBz) (other) EVQLVESGGGLVKPGGSLRLSCAASGFTFSSYGMHWVRQAPGKGLEWVAFIRYDGSNKYYADSVKGRFTISRDNSKNTLYLQMNSLRAEDTAVYYCAKDWEYSGYDAHPGWGQGTLVTVSSGGGGSGGGGSGGGGSDIQLTQSPSSLSASVGDRVTITCRASQGISSALAWYQQKPGKAPKLLIYDASSLESGVPSRFSGSGSGTEFTLTISSLQPEDFATYFCQQTYSPPITFGQGTRLEIKRAAATTTPAPRPPTPAPTIASQPLSLRPEACRPAAGGAVHTRGLDFACDIYIWAPLAGTCGVLLLSLVITLYCKRGRKKLLYIFKQPFMRPVQTTQEEDGCSCRFPEEEEGGCELRVKFSRSADAPAYQQGQNQLYNELNLGRREEYDVLDKRRGRDPEMGGKPRRKNPQEGLYNELQKDKMAEAYSEIGMKGERRRGKGHDGLYQGLSTATKDTYDALHMQALPPR", "tumor lysis of RPMI-8226-luc, luciferase-based killing assay, E:T 5": "> 40"},
      {"binder": "BCMA CAR construct with ScFv sequence 2 (MTB-2) (other, not shown: large carriers) EVQLVQSGGGLVQPGGSLRLSCAASGFTFSSYWMSWVRQAPGKGLEWVSGINGSGDRTYYADSVKGRFTISRDNSKNTLYLQMNSLRAEDTAVYYCANYNYDDNSGYGLGQGTLVTVSSGGGGSGGGGSGGGGSQSVLTQPPSVSVAPGKTARITCGGNNIGSKSVHWYQQKPGQAPVLVIYDDSDRPSGIPERFSGSNSGNTATLTISRVEAGDEADYYCQVWDSSSDHWVFGGGTKVTVLG", "tumor lysis of RPMI-8226-luc, luciferase-based killing assay, E:T 5": "≤ 40"},
      {"binder": "BCMA CAR construct with ScFv sequence 3 (MTB-3) (other, not shown: large carriers) EVQLVESGGGVVQPGGSLRLSCAASGFTFSSYGMHWVRQAPGKGLEWVAFIRYDGSNKYYADSVKGRFTISRDNSKNTLYLQMNSLRAEDTAVYYCAKDDYGGNSEGDYWGQGTLVTVSSGGGGSGGGGSGGGGSEIVLTQSPATLSVSLGERATLSCRASQSVSNSLAWYQQKPGQAPRLLIYDASTRATGIPARFSGSGSGTEFTLTISSLQPEDFATYFCQQTYSPPITFGQGTRLEIKR", "tumor lysis of RPMI-8226-luc, luciferase-based killing assay, E:T 5": "> 40"},
      {"binder": "BCMA CAR construct with ScFv sequence 28 (MTB-28) (other, not shown: large carriers) QVQLVESGGGVVQPGGSLRLSCAASGFTFSSYGMHWVRQAPGKGLEWVAFIRYDGSNKYYADSVKGRFTISRDNSKNTLYLQMNSLRAEDTAVYYCARDSYSSSGDPRAFDPWGQGTLVTVSSGGGGSGGGGSGGGGSNFMLTQPHSVSESPGKTVTISCTGSSGSIASNYVQWYQQRPGSAPSTVIFEDNQRPSGVPGRFSGSVDRSSNSASLTISGLKTEDEADYYCQSYDSNNRGLFGGGTKVTVLG", "tumor lysis of RPMI-8226-luc, luciferase-based killing assay, E:T 5": "> 40"},
      {"binder": "CAR D0085 (Ef1a-BCMA sequence 16 CD8 BBz) (other) EVQLVQSGGGVVQPGGSLRLSCAASGFTFSSYGMHWVRQAPGKGLEWVAFIRYDGSNKYYADSVKGRFTISRDNSKNTLYLQMNSLRAEDTAVYYCARDLNDYGDPPPYWGQGTLVTVSSGGGGSGGGGSGGGGSDIQMTQSPSSLSASVGDRVTITCRASQSISSYLNWYQQKPGKAPKLLIYDASNLETGVSSRFSGSGSGTEFTLTISSLQPEDFATYFCQQTYSPPITFGQGTRLEIKRAAATTTPAPRPPTPAPTIASQPLSLRPEACRPAAGGAVHTRGLDFACDIYIWAPLAGTCGVLLLSLVITLYCKRGRKKLLYIFKQPFMRPVQTTQEEDGCSCRFPEEEEGGCELRVKFSRSADAPAYQQGQNQLYNELNLGRREEYDVLDKRRGRDPEMGGKPRRKNPQEGLYNELQKDKMAEAYSEIGMKGERRRGKGHDGLYQGLSTATKDTYDALHMQALPPR", "tumor lysis of RPMI-8226-luc, luciferase-based killing assay, E:T 5": "> 40"},
      {"binder": "BCMA CAR construct with ScFv sequence 50 (MTB-50) (other, not shown: large carriers) EVQLVQSGGGVVRPGGSLRLSCAASGFTFSTYEMNWVRQAPGKGLEWLAYIGGSGSPIYYADSVRGRFTISRDNTKNSLFLQMSSLRAEDTAVYYCVEGWFDKWGLGTLVTVSSGGGGSGGGGSGGGGSDIQLTQSPSTLSASVGDRVTITCRASQSISSYLNWYQQKPGKAPKLLIYDASNLETGVPSRFSGSGSGTDFTLTISSLQPEDFATYYCQQSYSTPYTFGQGTKLEIKR", "tumor lysis of RPMI-8226-luc, luciferase-based killing assay, E:T 5": "> 40"},
      {"binder": "BCMA CAR construct with ScFv sequence 49 (MTB-49) (other, not shown: large carriers) EVQLVESGGGVVQPGRSLRLSCAASGFTFSSYGMHWVRQAPGKGLEWVAFIRYDGSNKYYADSVKGRFTISRDNSKNTLYLQMNSLRAEDTAVYYCVSDDYGGNSGTSYWGQGTLVTVSSGGGGSGGGGSGGGGSDIQMTQSPSSLSASVGDRVTITCQASQDISNYLNWYQQKPGKAPKLLIYDASNLETGVPSRFSGSGSGTDFTLTISSLQPEDFATYYCQQSYSTPVTFGGGTKLTVLG", "tumor lysis of RPMI-8226-luc, luciferase-based killing assay, E:T 5": "> 40"},
      {"binder": "BCMA CAR construct with ScFv sequence 14 (MTB-14) (other, not shown: large carriers) EVQLVESGGGVVQPGRSLRLSCAASGFTFSSYGMHWVRQAPGKGLEWVAFIRYDGSNKYYADSVKGRFTISRDNSKNTLYLQMNSLRAEDTAVYYCVSDDYGGNSGTSYWGQGTLVTVSSGGGGSGGGGSGGGGSDIQMTQSPSSLSASVGDRVTITCQASQDISNYLNWYQQKPGKAPKLLIYDASNLETGVPSRFSGSGSGTDFTLTISSLQPEDFATYYCQQSYSTPVTFGGGTKLTVLG", "tumor lysis of RPMI-8226-luc, luciferase-based killing assay, E:T 5": "> 40"}
    ]},
    {"biological_target": "T2, recombinant human BCMA (ectodomain)-Fc (human, UniProt Q02223 1-54)", "T2 construct": "extracellular domain; also called BCMA-Fc; BCMA-Fc peptide; not shown: Fc part", "T2 sequence (looked up)": "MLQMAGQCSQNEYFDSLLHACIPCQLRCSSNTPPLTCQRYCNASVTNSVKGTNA", "assay": "flow cytometry of transduced T cells; staining with recombinant human BCMA Fc chimera then anti-Fc-Alexa Fluor 647 (method in paragraph 320)", "procedure": "To assess the cell surface expression of BCMA CARs, 0.5-1e6 CAR T-cells were resuspended in FACs buffer (Miltenyi Biotec's autoMACS Rinsing Solution+MACS BSA Stock Solution) and incubated with 0.5 ug of recombinant human BCMA Fc Chimera Protein (RNDsystems) for 20 mins at 4° C. Cells were washed twice and re-suspended in FACs buffer and incubated for 20 mins at 4° C. with anti-Fc-Alexa Fluor 647 at 1:200 dilution. Cells were again washed twice and resuspended in FACs buffer and incubated for 20 mins at 4° C. with anti-CD4-Vioblue or anti-CD8-Viogreen (Miltenyi Biotec) at 1:50 dilution and 7AAD at 1:20 dilution. Cells were subsequently washed and analyzed using the MACSQuant® Analyzer 10 flow cytometer (Miltenyi Biotec).", "values": [
      {"binder": "CAR D0153 (BCMA 4-1c CD8 BBz) (other, Chimeric antigen receptor on transduced human primary T cells; also called D153; CAR D153) EVQLVETGGGVVQPGGSLRLSCAASGFTFSSYGMHWVRQAPGKGLEWVAFIRYDGSNKYYADSVKGRFTISRDNSKNTLYLQMNSLRAEDTAVYYCAKDWDTYYYDSSGYDRAWGQGTLVTVSSGGGGSGGGGSGGGGSDIQMTQSPSSLSASVGDRVTITCQASQDINNYLNWYQQKPGKAPKLLIYAASSLQSGVSSRFSGSGSGTEFTLTISSLQPEDFATYFCQQTYSPPITFGQGTRLEIKRAAATTTPAPRPPTPAPTIASQPLSLRPEACRPAAGGAVHTRGLDFACDIYIWAPLAGTCGVLLLSLVITLYCKRGRKKLLYIFKQPFMRPVQTTQEEDGCSCRFPEEEEGGCELRVKFSRSADAPAYQQGQNQLYNELNLGRREEYDVLDKRRGRDPEMGGKPRRKNPQEGLYNELQKDKMAEAYSEIGMKGERRRGKGHDGLYQGLSTATKDTYDALHMQALPPR", "binding result": "binds"}
    ]}
  ]
}
